The text below walks through data of patent publication US20230220021A1 (UNIVERSITY OF COPENHAGEN, published 2023).

The Kd is a measure of binding affinity in units of concentration. As a reminder, the Ki is a measure of affinity in units of concentration, obtained from inhibition or displacement. Low values mean a stronger hold on the target, high ones a looser hold on the target.

For assay [1], the target named is T1, (7× His)-PSD-95-PDZ2 wild type (UniProt P78352 160-246).
T1 construct: domain: PDZ2; recombinant from E. coli; also called PSD-95-PDZ2 WT; not shown: 7x His tag
The assay can be described thus: FP saturation.

The target of assay [2] is T2, PSD-95-PDZ2 V229A (UniProt P78352 160-246).
T2 construct: domain: PDZ2; not shown: 7x His tag
The assay can be described thus: FP saturation.

Assay [3] addresses T3, PSD-95-PDZ2 K165A (UniProt P78352 160-246).
T3 construct: domain: PDZ2; also called K165 mutation; not shown: 7x His tag
Briefly: FP saturation.

Assay [4] has as its target T1, (7× His)-PSD-95-PDZ2 wild type. Briefly: FP competition.
Target sequence in this assay (P78352 160-246): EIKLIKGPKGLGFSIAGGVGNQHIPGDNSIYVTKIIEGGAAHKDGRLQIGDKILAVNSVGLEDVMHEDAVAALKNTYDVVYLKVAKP
Description: (§1) Fluorescence polarization (FP). FP assays were performed in a 384-well plate format. Fluorescence polarization was measured using a Safire 2 plate reader. The instrument Z-factor was optimized for each assay. The G-factor was calibrated to an initial milli polarization value of 20. […] Every measurement was performed in NaPI 50 mM, 50 mM NaCl and 1% BSA at pH 7.2, 25° C. […] The curves were done in triplicates. Then, the polarization was fitted into a one-site binding model using Prism software 8.0 (GraphPad), from which the Kd can be measured. […] The mili polarization (mP) values were plotted as a function of peptide concentration and fitted to a sigmoidal dose-response curve using Prism software 8.0 (GraphPad). The Kᵢ values were calculated according to Nikolovska-Coleska Z. et al.⁴⁰⁻⁴¹
Data was collected in triplicates and is presented as mean of Kᵢ values±SEM.
For assay [5] the target is unchanged. The assay can be described thus: ITC, 25 °C. On the technique in general: ITC needs no label: the signal is the heat of the interaction.
Target sequence in this assay (P78352 160-246): as above
Description: Isothermal titration calorimetry (ITC). […] Proteins were dialyzed against this buffer using Amicon® Ultra-15 centrifugal filter units, with a MWCO 3000 Da.
This assay was performed on an ITC200. The instrument differential power (DP) was set to 10 and the syringe rotating speed to 600 RPM. The assay setup consisted of introducing the protein inside the cell and the peptide (titrant) on the syringe. Calorimetry was performed at 25° C. Each analysis was performed in triplicates. Furthermore, several runs of peptide into buffer were performed in order to remove injection residual heat. Runs were analyzed with Origin 7.0 software (OriginLab).
Assay [6] shares this target. Briefly: FP competition. The source holds these as a separate data set.
Target sequence in this assay (P78352 160-246): as above
Description: as §1
In assay [7] the target is T4, PSD-95-PDZ2 H225A (UniProt P78352 160-246).
T4 construct: domain: PDZ2; not shown: 7x His tag
The assay can be described thus: FP saturation.

Assay [8] addresses T5, PSD-95-PDZ2 K168A.
T5 chain: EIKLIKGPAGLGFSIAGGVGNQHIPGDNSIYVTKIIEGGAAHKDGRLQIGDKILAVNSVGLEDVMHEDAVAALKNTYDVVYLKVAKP
Briefly: FP saturation, TAMRA probe titrated with the protein.
Description: as §1
(§2) Obtained binding affinities (Kd values) for each PSD-95-PDZ2 Ala mutants were normalized to PSD-95-PDZ2 WT values to obtain the fold change for each mutation (FIG. 8).

The target in assay [9] is T6, PSD-95-PDZ2 S173A.
T6 chain: T5 chain with A9K, S14A
The assay is described as above.
Description: as §1, §2

For assay [10], the target named is T7, PSD-95-PDZ2 N180A.
T7 chain: T5 chain with A9K, N21A
The assay is described as above.
Description: as §1, §2

Assay [11] has as its target T8, PSD-95-PDZ2 T192A.
T8 chain: T5 chain with A9K, T33A
The description is as above.
Description: as §1, §2

In assay [12] the target is T9, PSD-95-PDZ2 K193A.
T9 chain: T5 chain with A9K, K34A
The assay is described as above.
Description: as §1, §2

In assay [13] the target is T10, PSD-95-PDZ2 E226A.
T10 chain: T5 chain with A9K, E67A
The description is as above.
Description: as §1, §2

Assay [14] addresses T11, PSD-95-PDZ2 K233A.
T11 chain: T5 chain with A9K, K74A
The description is as above.
Description: as §1, §2

Where a chain is given by its changes, count along the chain named. Numbers in names are those of the source. Like-named read-outs stand apart in the source and are kept apart here. Where no end group is shown, it is not given here. [ ]: non-standard residue; d: D form.

B1: cyclic nNOS β-hairpin TAMRA probe, cyclo-(CTHLETTFTGDGTPKTIRVTQpG) labelled with TAMRA (peptide)
peptide: cyclo(C(TAMRA maleimide)THLETTFTGDGTPKTIRVTQ[dP]G)
notes: also called cyclic nNOS TAMRA probe
For B1, in assay [1], binding was put at a Kd of 1000 nM. In addition, the “fold loss in affinity vs PDZ2 WT” value in [2] worked out at 6 fold; in assay [3], 4 fold.

B2: cyclic nNOS β-hairpin peptide His(3-Me) (peptide)
peptide: TXLETTFTGDGTPKTIRVTQPGQ
modifications: cyclic; D-Pro; His(3-Me) at 106
B2 yielded a Ki in assay [4] of 400 nM.

B3: cyclic nNOS β-hairpin peptide (WT), Cyclo-(THLETTFTGDGTPKTIRVTQpG(Qα)) (peptide)
peptide: cyclo(THLETTFTGDGTPKTIRVTQ[dP]GQ)
SMILES: CC[C@H](C)[C@@H]1NC(=O)[C@H]([C@@H](C)O)NC(=O)[C@H](CCCCN)NC(=O)[C@@H]2CCCN2C(=O)[C@H]([C@@H](C)O)NC(=O)CNC(=O)[C@H](CC(=O)O)NC(=O)CNC(=O)[C@H]([C@@H](C)O)NC(=O)[C@H](Cc2ccccc2)NC(=O)[C@H]([C@@H](C)O)NC(=O)[C@H]([C@@H](C)O)NC(=O)[C@H](CCC(=O)O)NC(=O)[C@H](CC(C)C)NC(=O)[C@H](Cc2c[nH]cn2)NC(=O)[C@H]([C@@H](C)O)NC(=O)[C@H](CCC(N)=O)NC(=O)CNC(=O)[C@H]2CCCN2C(=O)[C@H](CCC(N)=O)NC(=O)[C@H]([C@@H](C)O)NC(=O)[C@H](C(C)C)NC(=O)[C@H](CCCNC(=N)N)NC1=O
notes: also called Cyclic WT; Wild type mimic
For B3, in [5], the “-ΔS*T” value worked out at 0.35 kcal/mol, the Kd was 2150 nM and the ΔH is -7.74 kcal/mol.

B4: cyclic nNOS β-hairpin peptide G115P T116E (peptide)
peptide: cyclo(THLETTFTGDPEPKTIRVTQ[dP]GQ)
SMILES: CC[C@H](C)[C@@H]1NC(=O)[C@H]([C@@H](C)O)NC(=O)[C@H](CCCCN)NC(=O)[C@@H]2CCCN2C(=O)[C@H](CCC(=O)O)NC(=O)[C@@H]2CCCN2C(=O)[C@H](CC(=O)O)NC(=O)CNC(=O)[C@H]([C@@H](C)O)NC(=O)[C@H](Cc2ccccc2)NC(=O)[C@H]([C@@H](C)O)NC(=O)[C@H]([C@@H](C)O)NC(=O)[C@H](CCC(=O)O)NC(=O)[C@H](CC(C)C)NC(=O)[C@H](Cc2c[nH]cn2)NC(=O)[C@H]([C@@H](C)O)NC(=O)[C@H](CCC(N)=O)NC(=O)CNC(=O)[C@H]2CCCN2C(=O)[C@H](CCC(N)=O)NC(=O)[C@H]([C@@H](C)O)NC(=O)[C@H](C(C)C)NC(=O)[C@H](CCCNC(=N)N)NC1=O
Turning to B4, in assay [6], affinity was put at a Ki of 22500 nM.

B5: cyclic nNOS β-hairpin peptide T112W G115P (peptide)
peptide: cyclo(THLETTFWGDPTPKTIRVTQ[dP]GQ)
SMILES: CC[C@H](C)[C@@H]1NC(=O)[C@H]([C@@H](C)O)NC(=O)[C@H](CCCCN)NC(=O)[C@@H]2CCCN2C(=O)[C@H]([C@@H](C)O)NC(=O)[C@@H]2CCCN2C(=O)[C@H](CC(=O)O)NC(=O)CNC(=O)[C@H](Cc2c[nH]c3ccccc23)NC(=O)[C@H](Cc2ccccc2)NC(=O)[C@H]([C@@H](C)O)NC(=O)[C@H]([C@@H](C)O)NC(=O)[C@H](CCC(=O)O)NC(=O)[C@H](CC(C)C)NC(=O)[C@H](Cc2c[nH]cn2)NC(=O)[C@H]([C@@H](C)O)NC(=O)[C@H](CCC(N)=O)NC(=O)CNC(=O)[C@H]2CCCN2C(=O)[C@H](CCC(N)=O)NC(=O)[C@H]([C@@H](C)O)NC(=O)[C@H](C(C)C)NC(=O)[C@H](CCCNC(=N)N)NC1=O
As to B5, the Ki in assay [6] stood at 950 nM.

B6: cyclic nNOS β-hairpin peptide His(1-Me) (peptide)
peptide: TXLETTFTGDGTPKTIRVTQPGQ
modifications: cyclic; D-Pro; His(1-Me) at 106
For B6, in assay [4], the Ki amounted to 2900 nM.

B7: TAMRA labelled C-terminal GluN2B peptide (KLSSIESDV-COOH) (peptide)
peptide: KLSSIESDV-OH
modifications: also: TAMRA label (site not given here)
notes: also called C-terminal GluN2B TAMRA probe; GluN2B canonical peptide
In assay [1], B7 registered a Kd of 4000 nM. In addition, the “fold decrease in affinity vs PDZ2 WT” value in assay [7] came out at 5 fold. In addition, the “fold loss in affinity vs PDZ2 WT” value in assay [2] was determined as 2 fold; in assay [3], 5 fold. For the same molecule, the binding result in [8], in assay [9], in assay [10], in assay [11], in assay [12] and in assay [13] was “binds” each time. Also, the binding result in assay [14] was “binds”.
